The text below walks through data of patent US20160008485A1 (Pfizer, published 2016).

Assay [1] concerns the target T1, human FcRn (human, UniProt P55899 24-297; P61769 21-119, limits assumed, biotinylated through an engineered Avi-tag).
T1 construct: Immobilised on a streptavidin chip; not shown: engineered Avi-tag
The assay is described as follows: BIAcore SPR, steady state, pH 6.0, biotinylated human FcRn on SA chip. A general note: Surface plasmon resonance follows binding to a sensor surface in real time, without labels.

The target of assay [2] is T1, human FcRn. Described as above. The source holds these as a separate data set.
Description: Binding is detected by surface plasmon resonance (SPR) of laser light refracting from the surface. Human FcRn was specifically biotinylated through an engineered Avi-tag using the BirA reagent (Catalog #: BIRA500, Avidity, LLC, Aurora, Colo.) and immobilized onto a streptavidin (SA) sensor chip to enable uniform orientation of the FcRn protein on the sensor.
Assay [3] addresses T2, human truncated recombinant 5T4 protein (5T4-tm-_myc_his) (human, UniProt Q13641 32-355).
T2 construct: extracellular domain; Coated on the ELISA plate; construct cited to Boghaert et al. 2008; also called 5T4 antigen; not shown: Myc and histidine tags
T2 sequence (looked up): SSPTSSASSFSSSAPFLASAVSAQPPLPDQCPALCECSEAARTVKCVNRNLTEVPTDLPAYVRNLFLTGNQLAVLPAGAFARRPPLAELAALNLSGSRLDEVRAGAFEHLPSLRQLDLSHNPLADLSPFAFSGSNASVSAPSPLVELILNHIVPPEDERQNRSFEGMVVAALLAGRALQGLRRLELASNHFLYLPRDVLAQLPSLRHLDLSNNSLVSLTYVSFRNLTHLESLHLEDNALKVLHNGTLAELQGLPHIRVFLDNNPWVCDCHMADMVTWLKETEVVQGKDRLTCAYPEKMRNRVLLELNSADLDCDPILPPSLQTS
Nature of the assay: competition ELISA on plate-coated 5T4-tm-_myc_his; competitor: biotinylated wild type anti-5T4 antibody at 1.3 nM, detected with streptavidin-HRP, OD450. (In general: An ELISA detects its analyte on a solid surface through an enzyme-linked reagent.)

Assay [4] concerns the target T3, human 5T4 antigen on cells (MDAMB435/5T4 transfectants; MDA-MB-468) (human, UniProt Q13641 32-420).
T3 sequence (looked up): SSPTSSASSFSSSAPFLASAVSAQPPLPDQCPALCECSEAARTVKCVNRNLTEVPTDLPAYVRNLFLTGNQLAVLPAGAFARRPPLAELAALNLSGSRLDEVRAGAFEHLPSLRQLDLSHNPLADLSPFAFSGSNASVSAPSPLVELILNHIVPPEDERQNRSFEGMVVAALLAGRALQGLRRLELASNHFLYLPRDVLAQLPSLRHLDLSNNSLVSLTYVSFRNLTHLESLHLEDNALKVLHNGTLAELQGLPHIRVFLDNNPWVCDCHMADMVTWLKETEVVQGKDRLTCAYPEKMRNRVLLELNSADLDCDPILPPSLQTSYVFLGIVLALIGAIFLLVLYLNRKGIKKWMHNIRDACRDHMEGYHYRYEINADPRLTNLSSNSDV
Nature of the assay: cell-based or functional assay.

Several values for one entry are separate records, joined by “and”; a condition that tells them apart may be missing. Equal values may be shown once. Read-outs that look alike come from different tables or passages of the source.

T1 sequence (P55899 24-297 limits assumed, chain 1 of 2): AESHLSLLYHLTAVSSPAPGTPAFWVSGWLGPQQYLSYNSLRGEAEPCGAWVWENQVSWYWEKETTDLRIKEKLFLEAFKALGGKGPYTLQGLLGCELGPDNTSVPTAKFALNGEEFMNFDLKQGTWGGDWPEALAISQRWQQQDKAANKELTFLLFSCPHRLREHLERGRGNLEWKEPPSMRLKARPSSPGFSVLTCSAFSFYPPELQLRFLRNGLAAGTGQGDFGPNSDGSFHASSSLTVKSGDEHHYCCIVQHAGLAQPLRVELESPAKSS
T1 sequence (P61769 21-119 limits assumed, chain 2 of 2): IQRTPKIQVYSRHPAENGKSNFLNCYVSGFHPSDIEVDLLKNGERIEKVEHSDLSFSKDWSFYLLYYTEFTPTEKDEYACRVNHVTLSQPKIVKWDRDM

B1: parental anti-5T4 antibody (wild type human IgG1) (antibody)
heavy: not shown
light: DIQMTQSPSSLSASVGDRVTITCKASQSVSNDVAWYQQKPGKAPKLLIYFATNRYTGVPSRFSGSGYGTDFTLTISSLQPEDFATYYCQQDYSSPWTFGQGTKVEIKRTVAAPSVFIFPPSDEQLKSGTASVVCLLNNFYPREAKVQWKVDNALQSGNSQESVTEQDSKDSTYSLSSTLTLSKADYEKHKVYACEVTHQGLSSPVTKSFNRGEC
notes: Humanized, human IgG1/kappa; also called Parental anti-5T4 Ab; wt IgG1
A word on the Kd: it is the concentration at which binding is half-saturated. Low values mean tighter binding, high ones weaker binding. As to B1, the Kd came out at 412 nM with human FcRn [1] and 493 nM with human FcRn [2].

B2: 5T4-V422C (antibody, human IgG1, kappa)
heavy: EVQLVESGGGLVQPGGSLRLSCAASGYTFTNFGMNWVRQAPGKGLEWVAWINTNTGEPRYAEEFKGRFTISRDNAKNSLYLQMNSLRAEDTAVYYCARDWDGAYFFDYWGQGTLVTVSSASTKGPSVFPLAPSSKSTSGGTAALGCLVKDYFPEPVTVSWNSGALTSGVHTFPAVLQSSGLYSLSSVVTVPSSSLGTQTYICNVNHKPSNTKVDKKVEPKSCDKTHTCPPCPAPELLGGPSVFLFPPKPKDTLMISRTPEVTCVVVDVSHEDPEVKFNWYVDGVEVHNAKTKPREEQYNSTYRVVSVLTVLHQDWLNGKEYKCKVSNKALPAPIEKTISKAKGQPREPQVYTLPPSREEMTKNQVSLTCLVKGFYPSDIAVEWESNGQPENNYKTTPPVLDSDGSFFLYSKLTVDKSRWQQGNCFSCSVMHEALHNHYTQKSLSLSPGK
light: DIQMTQSPSSLSASVGDRVTITCKASQSVSNDVAWYQQKPGKAPKLLIYFATNRYTGVPSRFSGSGYGTDFTLTISSLQPEDFATYYCQQDYSSPWTFGQGTKVEIKRTVAAPSVFIFPPSDEQLKSGTASVVCLLNNFYPREAKVQWKVDNALQSGNSQESVTEQDSKDSTYSLSSTLTLSKADYEKHKVYACEVTHQGLSSPVTKSFNRGEC
In the assay with human FcRn [1], B2 came in with a Kd of 443 nM. Also, the “IC50 (read off the curve)” value in assay [3] was roughly 7 nM.

B3: 5T4-L398C-mcMMAD (antibody, human IgG1, kappa)
heavy: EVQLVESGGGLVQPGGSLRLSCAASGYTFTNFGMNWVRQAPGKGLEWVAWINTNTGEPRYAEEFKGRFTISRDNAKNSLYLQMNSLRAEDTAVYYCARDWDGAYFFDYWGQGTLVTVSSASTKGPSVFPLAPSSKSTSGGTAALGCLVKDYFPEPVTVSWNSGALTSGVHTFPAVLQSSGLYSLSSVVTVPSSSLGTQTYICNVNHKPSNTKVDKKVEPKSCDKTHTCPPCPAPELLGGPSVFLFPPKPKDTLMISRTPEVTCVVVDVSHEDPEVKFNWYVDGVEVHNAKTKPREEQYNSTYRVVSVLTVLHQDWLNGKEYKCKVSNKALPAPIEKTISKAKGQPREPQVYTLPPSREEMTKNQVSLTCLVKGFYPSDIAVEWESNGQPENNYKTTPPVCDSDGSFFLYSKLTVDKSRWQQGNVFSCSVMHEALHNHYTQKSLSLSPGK
light: DIQMTQSPSSLSASVGDRVTITCKASQSVSNDVAWYQQKPGKAPKLLIYFATNRYTGVPSRFSGSGYGTDFTLTISSLQPEDFATYYCQQDYSSPWTFGQGTKVEIKRTVAAPSVFIFPPSDEQLKSGTASVVCLLNNFYPREAKVQWKVDNALQSGNSQESVTEQDSKDSTYSLSSTLTLSKADYEKHKVYACEVTHQGLSSPVTKSFNRGEC
modifications: mcMMAD on engineered Cys 398 (EU)
notes: Antibody-drug conjugate
Take B3: in assay [4], the “IC50, growth inhibition (MTS), MDA-MB-468 cells (5T4 expression 2+)” value (shortened to “IC50, growth inhibition (MTS)”) was 13 µg/mL and the “IC-50, growth inhibition (MTS), MDAMB435/5T4 cells (5T4 expression 3+)” value (“IC-50, growth inhibition (MTS)” below) was determined as 160 ng ADC/ml. The same molecule showed a Kd with human FcRn [2] of 704 nM.

B4: 5T4-E380C-mcMMAD (antibody, human IgG1, kappa)
heavy: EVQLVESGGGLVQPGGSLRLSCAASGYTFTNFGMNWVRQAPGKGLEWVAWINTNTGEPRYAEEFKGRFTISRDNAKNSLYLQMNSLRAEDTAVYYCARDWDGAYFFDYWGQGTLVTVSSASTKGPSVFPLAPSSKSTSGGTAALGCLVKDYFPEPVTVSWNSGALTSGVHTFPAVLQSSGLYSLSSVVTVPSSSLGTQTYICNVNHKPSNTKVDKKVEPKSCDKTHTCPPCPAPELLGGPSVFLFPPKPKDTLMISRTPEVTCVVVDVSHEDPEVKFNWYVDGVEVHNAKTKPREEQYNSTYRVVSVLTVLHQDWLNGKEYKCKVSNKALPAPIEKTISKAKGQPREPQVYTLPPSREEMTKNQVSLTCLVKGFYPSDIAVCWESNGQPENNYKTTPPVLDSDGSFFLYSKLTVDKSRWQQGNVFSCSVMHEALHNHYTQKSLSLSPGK
light: DIQMTQSPSSLSASVGDRVTITCKASQSVSNDVAWYQQKPGKAPKLLIYFATNRYTGVPSRFSGSGYGTDFTLTISSLQPEDFATYYCQQDYSSPWTFGQGTKVEIKRTVAAPSVFIFPPSDEQLKSGTASVVCLLNNFYPREAKVQWKVDNALQSGNSQESVTEQDSKDSTYSLSSTLTLSKADYEKHKVYACEVTHQGLSSPVTKSFNRGEC
modifications: mcMMAD on engineered Cys 380 (EU)
notes: Antibody-drug conjugate
For the molecule B4, in assay [4], the “IC50, growth inhibition (MTS)” value was determined as 8.1 µg/mL and the “IC-50, growth inhibition (MTS)” value came out at 170 ng ADC/ml. Moreover, binding in the assay with human FcRn [2] was put at a Kd of 409 nM.

B5: 5T4-L443C-mcMMAD (antibody)
heavy: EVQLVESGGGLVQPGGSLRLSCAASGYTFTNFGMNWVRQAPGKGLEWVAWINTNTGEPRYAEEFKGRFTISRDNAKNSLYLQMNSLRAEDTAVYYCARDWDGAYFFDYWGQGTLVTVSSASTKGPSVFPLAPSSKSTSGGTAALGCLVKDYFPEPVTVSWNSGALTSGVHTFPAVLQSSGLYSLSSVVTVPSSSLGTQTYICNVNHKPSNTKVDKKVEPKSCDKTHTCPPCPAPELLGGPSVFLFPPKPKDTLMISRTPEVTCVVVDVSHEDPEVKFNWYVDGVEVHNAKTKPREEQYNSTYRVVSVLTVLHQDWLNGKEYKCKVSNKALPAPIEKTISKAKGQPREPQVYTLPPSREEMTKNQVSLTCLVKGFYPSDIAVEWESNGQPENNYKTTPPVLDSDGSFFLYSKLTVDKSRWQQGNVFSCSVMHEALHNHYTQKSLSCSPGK
light: DIQMTQSPSSLSASVGDRVTITCKASQSVSNDVAWYQQKPGKAPKLLIYFATNRYTGVPSRFSGSGYGTDFTLTISSLQPEDFATYYCQQDYSSPWTFGQGTKVEIKRTVAAPSVFIFPPSDEQLKSGTASVVCLLNNFYPREAKVQWKVDNALQSGNSQESVTEQDSKDSTYSLSSTLTLSKADYEKHKVYACEVTHQGLSSPVTKSFNRGEC
modifications: mcMMAD on engineered Cys 443 (EU)
notes: Antibody-drug conjugate; also called 5T4-L443C-mcMMAD (1)
Consider B5, for which, in assay [4], the “IC50, growth inhibition (MTS)” value is 20 µg/mL and the “IC-50, growth inhibition (MTS)” value turned out to be 120 ng ADC/ml. Besides, the Kd in the assay with human FcRn [2] was 697 nM and 518 nM.

B6: 5T4-V422C-mcMMAD (antibody, human IgG1, kappa)
heavy: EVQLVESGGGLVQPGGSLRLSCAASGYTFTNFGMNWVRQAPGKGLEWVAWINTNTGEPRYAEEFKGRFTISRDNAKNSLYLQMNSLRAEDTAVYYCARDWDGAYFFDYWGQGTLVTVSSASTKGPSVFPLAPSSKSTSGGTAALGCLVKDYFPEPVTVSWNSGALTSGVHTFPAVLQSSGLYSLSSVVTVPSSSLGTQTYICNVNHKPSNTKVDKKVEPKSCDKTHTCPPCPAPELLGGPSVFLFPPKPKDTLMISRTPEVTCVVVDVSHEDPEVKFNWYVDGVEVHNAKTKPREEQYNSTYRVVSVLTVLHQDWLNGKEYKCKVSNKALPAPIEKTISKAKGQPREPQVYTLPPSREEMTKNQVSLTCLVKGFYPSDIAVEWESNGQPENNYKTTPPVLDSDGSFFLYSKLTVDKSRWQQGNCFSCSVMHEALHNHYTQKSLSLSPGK
light: DIQMTQSPSSLSASVGDRVTITCKASQSVSNDVAWYQQKPGKAPKLLIYFATNRYTGVPSRFSGSGYGTDFTLTISSLQPEDFATYYCQQDYSSPWTFGQGTKVEIKRTVAAPSVFIFPPSDEQLKSGTASVVCLLNNFYPREAKVQWKVDNALQSGNSQESVTEQDSKDSTYSLSSTLTLSKADYEKHKVYACEVTHQGLSSPVTKSFNRGEC
modifications: mcMMAD on engineered Cys 422 (EU)
notes: Antibody-drug conjugate
With B6, in assay [4], the “IC50, growth inhibition (MTS)” value is 36 µg/mL and the “IC-50, growth inhibition (MTS)” value worked out at 270 ng ADC/ml. For the same molecule, binding in the assay with human FcRn [2] was put at a Kd of 402 nM.
